Data from article PMC4177747, “Derlin-1 Regulates Mutant VCP-Linked Pathogenesis and Endoplasmic Reticulum Stress-Induced Apoptosis” (PLoS Genetics, 2014).

Molecular target: T1, TER94 (endogenous, the fly VCP homolog) (Drosophila (endogenous in flies), UniProt Q7KN62 1-801)
T1 construct: TER94, the Drosophila homolog of VCP, endogenous, detected with anti-VCP; also called TER94^WT; source: endogenous, whole fly lysate
Assay: co-IP; anti-VCP on protein A-agarose; lysates of wild-type flies untreated or kept at 0°C for two hours and recovered for four hours at 25°C; blot with anti-VCP and anti-Derlin-1
Conditions: partners not purified

T1 sequence (Q7KN62 whole entry): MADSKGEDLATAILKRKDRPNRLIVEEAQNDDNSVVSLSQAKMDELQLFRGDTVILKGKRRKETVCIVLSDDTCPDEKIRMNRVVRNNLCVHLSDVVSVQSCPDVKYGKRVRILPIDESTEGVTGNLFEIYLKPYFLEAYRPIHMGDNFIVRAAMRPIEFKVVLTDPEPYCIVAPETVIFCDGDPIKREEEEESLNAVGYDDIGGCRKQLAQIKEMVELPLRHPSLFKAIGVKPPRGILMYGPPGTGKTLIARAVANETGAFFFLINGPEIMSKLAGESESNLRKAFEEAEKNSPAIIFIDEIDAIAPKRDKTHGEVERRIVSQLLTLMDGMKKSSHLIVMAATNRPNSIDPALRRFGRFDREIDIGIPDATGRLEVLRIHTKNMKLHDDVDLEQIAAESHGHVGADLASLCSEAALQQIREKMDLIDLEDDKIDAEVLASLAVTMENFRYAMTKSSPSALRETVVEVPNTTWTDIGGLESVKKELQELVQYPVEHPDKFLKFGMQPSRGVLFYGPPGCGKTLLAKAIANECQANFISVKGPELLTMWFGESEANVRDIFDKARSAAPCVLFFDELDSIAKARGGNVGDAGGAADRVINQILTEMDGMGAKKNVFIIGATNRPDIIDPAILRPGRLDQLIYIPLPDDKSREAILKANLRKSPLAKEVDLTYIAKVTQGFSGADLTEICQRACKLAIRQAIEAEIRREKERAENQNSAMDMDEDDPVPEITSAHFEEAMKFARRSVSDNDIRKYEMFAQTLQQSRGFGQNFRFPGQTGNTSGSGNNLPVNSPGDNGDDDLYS

fold increase of the level of Derlin-1/TER94 complexes after cold treatment against untreated (normalised to TER94): 4.9 ± 0.98 fold
B1: Derlin-1 (endogenous, fly) (natural protein, Drosophila (endogenous in flies), UniProt Q9VQ57 1-245, looked up)
chain: MDAGVWYRSLPRFTRYWLTATVVLSMLCRFDVIPLHWLHLDRSAVFSKLQLWRCMTSLFVFPISSNTAFHFLINCFFIVQYSSKLEKDQYSRSPADYLYLLIVSAVLANIGGMIFNVYFLMDTLVLAITYIWCQLNKDVTVSFWFGTRFKAMYLPWVLAAFEFIFHFSLASLVGIFVGHVYYFFKFQYSQDLGGTPLLETPQFLKRLVPDVSGGFGGFGLPPESRAPPRQATESPWGRGMTLGRN
notes: Derlin-1, Drosophila, endogenous protein of about 27 kD (predicted 28.25 kD); also called endogenous Derlin-1; source: endogenous, whole fly lysate
